Experimental data from US20100047163A1.

Assays:
[1] = target: LDL receptor (LDLR) on human glioblastoma multiforme cells (human) (UniProt P01130); assay: ^125I-LDL saturation binding to SF-767 cells
[2] = target: LDL receptor (LDLR) on human glioblastoma multiforme cells (human) (UniProt P01130); assay: ^125I-LDL saturation binding to SF-539 cells
[3] = target: LDL receptor (LDLR) on human glioblastoma multiforme cells (human) (UniProt P01130); assay: ^125I-LDL saturation binding to A-172 cells
[4] = target: LDL receptor (LDLR) on human glioblastoma multiforme cells (human) (UniProt P01130); assay: ^125I-LDL saturation binding to SF-763 cells
[5] = target: LDL receptor (LDLR) on human glioblastoma multiforme cells (human) (UniProt P01130); assay: ^125I-LDL saturation binding to U-343 MG cells
[6] = target: LDL receptor (LDLR) on human glioblastoma multiforme cells (human) (UniProt P01130); assay: ^125I-LDL saturation binding to U-251 MG cells (average of 2 experiments)

native plasma LDL (low density lipoprotein; LDLR ligand apoB100 on its surface), P04114 28-4563
Bmax (ng/mg cell protein) [1]: 793
Bmax (ng/mg cell protein) [2]: 310
Bmax (ng/mg cell protein) [3]: 1400
Bmax (ng/mg cell protein) [4]: 900
Bmax (ng/mg cell protein) [5]: 510
Bmax (ng/mg cell protein) [6]: 225
